One block for each binder: values may come before it.
Legend:
Test in all cases: SPR; steady-state fitting of TPOR binding; further details in S1 Methods (not shown)
Details in all cases: both partners purified
buto_a3_t2 = biological target: buto_a3_t2
buto_a3 = biological target: buto_a3
[1] = biological target: Thrombopoietin receptor (TPOR) (UniProt P40238 26-635)

Kd (buto_a3_t2): 0.88 ± 0.16 µM | Kd (buto_a3): 10.6 ± 1.49 µM
B1: Thrombopoietin receptor (TPOR) (receptor)
chain: QDVSLLASDSEPLKCFSRTFEDLTCFWDEEEAAPSGTYQLLYAYPREKPRACPLSSQSMPHFGTRYVCQFPDQEEVRLFFPLHLWVKNVFLNQTRTQRVLFVDSVGLPAPPSIIKAMGGSQPGELQISWEEPAPEISDFLRYELRYGPRDPKNSTGPTVIQLIATETCCPALQRPHSASALDQSPCAQPTMPWQDGPKQTSPSREASALTAEGGSCLISGLQPGNSYWLQLRSEPDGISLGGSWGSWSLPVTVDLPGDAVALGLQCFTLDLKNVTCQWQQQDHASSQGFFYHSRARCCPRDRYPIWENCEEEEKTNPGLQTPQFSRCHFKSRNDSIIHILVEVTTAPGTVHSYLGSPFWIHQAVRLPTPNLHWREISSGHLELEWQHPSSWAAQETCYQLRYTGEGHQDWKVLEPPLGARGGTLELRPRSRYRLQLRARLNGPTYQGPWSSWSDPTRVETATETAW
modifications: The construct is described only in S1 Methods. The extracellular domain after the signal peptide is assumed as the SPR receptor; glycosylation is possible.

Kd [1]: 4.09 ± 1.84 µM
B2: Thrombopoietin (TPO), bacterially expressed (ligand)
chain: SPAPPACDLRVLSKLLRDSHVLHSRLSQCPEVHPLPTPVLLPAVDFSLGEWKTQMEETKAQDILGAVTLLLEGVMAARGQLGPTCLSSLLGQLSGQVRLLLGALQSLLGTQLPPQGRTTAHKDPNAIFLSFQHLLRGKVRFLMLVGGSTLCVRRAPPTTAVPS
modifications: expressed in E. coli, non-glycosylated; N-terminal His tag/thrombin site omitted / The construct is described only in S1 Methods. The extracellular domain after the signal peptide is assumed as the …

Reference: publication PMC11596305, “A strategy to design protein-based antagonists against type I cytokine receptors” (PLOS Biology, 2024)
